Read-outs that look alike come from different tables or passages of the source.
Assays:
[1] = target: T1, cynomolgus monkey Siglec15-his protein (cynomolgus monkey); test: indirect ELISA on coated cynomolgus Siglec15-his
T1 construct: In house made; also called Cynomolgus Siglec15-his; cynomolgus Siglec15
T1 chain: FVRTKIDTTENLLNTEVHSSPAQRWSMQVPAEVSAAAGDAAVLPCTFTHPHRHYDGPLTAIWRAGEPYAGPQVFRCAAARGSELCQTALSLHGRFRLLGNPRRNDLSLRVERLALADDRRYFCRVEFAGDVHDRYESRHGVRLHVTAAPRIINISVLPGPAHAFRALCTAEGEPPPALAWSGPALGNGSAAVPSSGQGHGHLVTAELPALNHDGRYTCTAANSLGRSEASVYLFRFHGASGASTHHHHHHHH
Experimental: (§1) The anti-Siglec15 antibodies' cross-reactions to cynomolgus or mouse Siglec15 proteins were measured. Briefly, 96-well micro plates were coated with 100 μl of 2 μg/ml cynomolgus Siglec15-his protein (in house made with SEQ ID NO: 21), or 2 μg/ml mouse Siglec15-his protein (in house made with SEQ ID NO: 22) in carbonate/bicarbonate buffer (pH 9.6) for 2 hours at 37° C. ELISA plates were washed once with wash buffer (PBS+0.05% v/v Tween-20, PBST) and then blocked with 200 μl/well blocking buffer (5% w/v non-fatty milk in PBST) overnight at 4° C. Plates were washed 4 times and incubated with 100 μl serially diluted anti-Siglec15 antibodies of the disclosure or controls (starting at 66.7 nM, 5-fold serial dilution in PBST with 2.5% w/v non-fatty milk) for 40 minutes at 37° C. […] The reaction was stopped 4 minutes later at room temperature with 50 μl 1M H₂SO₄, and the absorbance of each well was read on a microplate reader using dual wavelength mode with 450 nm for TMB and 630 nm as the reference wavelength, then the OD (450-630) values were plotted against antibody concentration. Data was analyzed using Graphpad Prism software and EC₅₀ values were reported.

[2] = target: T2, human Siglec15-mouse Fc protein (human); test: cell based blocking FACS: human Siglec15-mouse Fc in solution, blocked ligand human LRRC4C on LRRC4C-3F12-1B9 cells
T2 construct: In house made
T2 chain: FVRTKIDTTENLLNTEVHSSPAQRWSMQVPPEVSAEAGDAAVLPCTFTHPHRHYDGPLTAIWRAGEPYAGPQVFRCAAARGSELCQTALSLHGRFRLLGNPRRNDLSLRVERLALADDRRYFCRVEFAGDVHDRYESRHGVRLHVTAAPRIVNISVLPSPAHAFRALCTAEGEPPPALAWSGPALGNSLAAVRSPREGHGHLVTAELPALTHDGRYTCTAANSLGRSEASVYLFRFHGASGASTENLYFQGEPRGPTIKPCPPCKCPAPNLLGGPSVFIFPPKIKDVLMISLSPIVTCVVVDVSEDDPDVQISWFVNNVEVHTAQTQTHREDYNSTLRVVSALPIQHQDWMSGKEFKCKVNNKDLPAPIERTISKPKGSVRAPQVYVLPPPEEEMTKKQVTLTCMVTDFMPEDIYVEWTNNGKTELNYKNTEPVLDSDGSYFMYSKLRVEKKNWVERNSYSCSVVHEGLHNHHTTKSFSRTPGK
Experimental: The activities of the anti-Siglec15 antibodies to block binding of Siglec15 protein to cell surface LRRC4C were evaluated by Flow Cytometry (FACS), using in house made LRRC4C-3F12-1B9 cells. Briefly, HEK-293 cells (ATCC #CRL-1573) were transfected with pCMV-T-P plasmid constructs with the nucleotide sequence encoding human LRRC4C (amino acid residues Met1-Ile640 of uniprot #Q9HCJ2) inserted between EcoRI and XbaI, following the instruction of lipofectamine 3000 transfection reagent (Thermo Fisher). A stable cell named LRRC4C-3F12-1B9 was chosen for subsequent cell based ligand-blocking assay.
Briefly, the anti-Siglec15 antibodies of the disclosure or controls were diluted with human Siglec15-mouse Fc protein (prepared in-house with SEQ ID NO: 26, 8 μg/ml […] in FACS buffer), starting at 66.67 nM with a 5-fold serial dilution, and incubated at room temperature for 40 minutes. Then, LRRC4C-3F12-1B9 cells were harvested from cell culture flasks, washed twice and re-suspended in PBS containing 2% v/v Fetal Bovine Serum (FACS buffer). Then, 1×10⁵ cells per well in 96 well-plates were incubated in 100 μL of the antibody/Siglec15-mouse Fc mixtures for 40 minutes at 4° C. […] Cells were washed twice and re-suspended in FACS buffer. Fluorescence was measured using a Becton Dickinson FACS Canto II-HTS equipment. Data was analyzed using Graphpad Prism software and IC₅₀ values were reported.

[3] = target: T3, mouse Siglec15-his protein (mouse); test: indirect ELISA on coated mouse Siglec15-his
T3 construct: In house made
T3 chain: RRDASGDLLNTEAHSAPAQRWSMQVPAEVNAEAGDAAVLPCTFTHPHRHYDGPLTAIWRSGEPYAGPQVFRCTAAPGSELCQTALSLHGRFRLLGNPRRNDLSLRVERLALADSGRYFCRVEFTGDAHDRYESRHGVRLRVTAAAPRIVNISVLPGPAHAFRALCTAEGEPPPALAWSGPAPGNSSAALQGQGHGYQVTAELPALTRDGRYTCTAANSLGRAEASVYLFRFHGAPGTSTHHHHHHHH
Experimental: as §1

[4] = target: T3, mouse Siglec15-his protein; test: indirect ELISA on coated mouse Siglec15-his
Experimental: as §1

EC50 [1]: 0.307 nM | IC50 [2]: 0.707 nM | EC50 [3]: 0.402 nM | EC50 [4]: 0.419 nM
B1: anti-Siglec15 benchmark (ch5G12) (antibody, human IgG1, kappa, V domains shown)
VH: QVQLQQPGAELVKPGASVKMSCKASGYTFTSYWITWVIQRPGQGLEWIGDIYCGSDTMHYNEKFKNKATLTVDTSSSTAYMQLSSLTSEDSAVYYCARWWDYGSSYDYFDYWGQGTTLTVSS
VL: DIKMTQSPSSMYASLGERVTITCKASQDINSYLSWFQQKPGKSPKTLIYRANRLVDGVPSRFSGSGSGQDYSLTISSLEYEDMGIYYCLQYDEFPYTFGGGTKLEIKR
notes: ch5G12 (US 20190202912A1); also called BM; Siglec15-ch5G9
